Molecular target: N-His6-fortilin (human) (UniProt P13693)
Assay: SPR; Biacore 3000, 25 °C, HBS-EPS (0.01 M HEPES, 0.5 M NaCl, 3 mM EDTA, 0.005% Tween 20, pH 7.4), 20 μL/min; forms of rh-fortilin amine-coupled to a CM5 chip; rh-TGF-β1 injected (0 to 200 nM; 100 nM for scouting)

Chain of N-His6-fortilin (human) (P13693 whole entry): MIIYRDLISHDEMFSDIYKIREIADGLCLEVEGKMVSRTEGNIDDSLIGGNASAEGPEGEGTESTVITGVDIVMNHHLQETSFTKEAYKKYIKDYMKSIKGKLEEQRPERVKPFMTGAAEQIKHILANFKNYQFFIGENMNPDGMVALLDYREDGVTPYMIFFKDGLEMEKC

- Kd: 210 nM
Substance: recombinant human TGF-β1 produced in-house (ligand)

From PMC8866402
